This note sets out measurements from patent publication US20230121197A1, “ANTIBODIES SPECIFICALLY BINDING THE CARBOXYMETHYLATED CATALYTIC SUBUNIT OF PROTEIN PHOSPHATASE 2A” (Medizinische Universität Wien, priority 2020, published 2023).

Test [1] addresses T1, C-terminal PP2Ac peptide Y307F, CGEPHVTRRTPDFFL (15-mer).
T1 construct: Non-carboxymethylated; Phe in place of Tyr307; Crosslinked to BSA in the Western blot; free or linked to BSA in the ELISA
T1 peptide: CGEPHVTRRTPDFFL
The experiment in a line: Western blot of 100 ng BSA crosslinked with peptide, detected through 16B12. As to the method: 100 ng of BSA crosslinked with peptides (L309: […] (SEQ ID NO:49), Y307F: […] (SEQ ID NO.50), pY307: […]pYFL (SEQ ID NO:51) or meL309: […]-CH₃) (SEQ ID NO:49) was separated by 10% SDS-PAGE and transferred to nitrocellulose membrane (0.2 μm, GE Healthcare). […] The membranes were blocked in 3% non-fatty dry milk (NFDM) in TBS-Tween for 1 h at RT and incubated with single clone hybridoma cell culture supernatant, clone 7C10-C5 diluted 1:100 in 0.5% NFDM in TBS-T (7C10 X63), recombinant single chain variable fragment of antibody 7C10-C5, undiluted (7C10 scFvs), recombinant bivalent single chain variable fragment 7C10-C5, undiluted (7C10 bi-scFvs) or single clone hybridoma cell culture supernatant, clone 1D7 (binding to non-carboxymethylated PP2Ac) 1:100 in 0.5% NFDM in TBS-T o/n at 4° C. After washing 3×5 min in TBS-T, blots incubated with recombinant antibodies were incubated with mouse anti-HA monoclonal antibody 16B12 (recognizing the hemagglutinin (HA) tag on the recombinant antibody), 1:10000 in 0.5% NFDM in TBS-T 2 h at room temperature. After washing 3×5 min in TBS-T, incubation with anti-mouse-HRP coupled secondary antibody for 1 h at RT and 3×10 min washes in TBS-T was performed. ECL was performed with GE Healthcare ECL reagents (RPN2106) mixed 1:3 with Clarity™ Western ECL Substrate, 500 ml #1705061 (Biorad). Signals were detected by exposure of X-ray films. […]
For orientation: A western blot detects proteins with antibodies after separation by electrophoresis.

For test [2], the target named is T2, C-terminal PP2Ac peptides L309, Y307F, pY307, meL309 (Homo sapiens, UniProt P67775).
T2 construct: coated with C-terminal PP2Ac peptides either free or linked to BSA; BSA (carrier)
The experiment in a line: ELISA with CGEPHVTRRTPDYFL peptides free or linked to BSA (scFv and recombinant 7C10-C5). The test is classed as binding. Particulars: peptides free or linked to BSA. As to the method:
Nunc Medisorp 96-well ELISA flat-bottom plates were coated with C-terminal PP2Ac peptides either free or linked to BSA. Specifically, the peptides were: unmodified L309 (CGEPHVTRRTPDYFL) (SEQ ID NO:49), Y307F (CGEPHVTRRTPDFFL) (SEQ ID NO:50), pY307 (CGEPHVTRRTPDpYFL) (SEQ ID NO:51) or carboxymethylated meL309 (CGEPHVTRRTPDYFL-CH3) (SEQ ID NO:49), on the ELISA plate at 8 μg/ml in TBS (free) or 1 μg/ml in TBS (linked to BSA) at 4° C. overnight. After washing twice with TBS, the wells were incubated with 2% BSA in TBS for 1 h at RT. After washing once with TBS, the wells were incubated with single clone hybridoma cell culture supernatant, clone 7C10-C5 1:50 (7C10 X63), recombinant single chain variable fragment of antibody 7C10-C5, undiluted (7C10 scFvs), or recombinant bivalent single chain variable fragment of antibody 7C10-C5, undiluted (7C10 bi-scFvs). After washing 3× with TBS, wells incubated with recombinant antibodies were incubated with monoclonal antibody 16B12, 1:10000 (recognizing the hemagglutinin tag on the recombinant antibody) in 1% BSA TBS 1 h at room temperature. After washing 3× in TBS, incubation with anti-mouse-HRP coupled secondary antibody for 1 h at RT was performed. Bound antibodies were detected by colorimetric reaction with 3,3′,5,5′-Tetramethylbenzidine as substrate, and absorbance was measured at 450 nm. Values were normalized to meL309 which was arbitrarily set to 1. Average and standard deviation of N=3 experiments are shown.
Nunc Medisorp 96-well ELISA flat-bottom plates were coated with peptides either free or linked to BSA, L309 (CGEPHVTRRTPDYFL) (SEQ ID NO:49) or meL309 (CGEPHVTRRTPDYFL-CH3) (SEQ ID NO:49), on the ELISA plate at 0.5 μg/ml in TBS (free) or […] in TBS (linked to BSA) at 4° C. over night. After washing twice with TBS, the wells were incubated with 2% BSA in TBS for 1 h at RT. After washing once with TBS, the wells were incubated with single clone hybridoma cell culture supernatant, clone 7C10-C5 1:50 (7C10 X63), or recombinant antibody 7C10-C5 undiluted (rec 7C10). After washing 3× with TBS, incubation with anti-mouse-HRP coupled secondary antibody for 1 h at RT was performed. Bound antibodies were detected by colorimetric reaction with 3,3′,5,5′-Tetramethylbenzidine as substrate, and absorbance was measured at 450 nm. Values were normalized to meL309 incubated with 7C10 X63, which was arbitrarily set to 1. Average and standard deviation of N=3 experiments are shown (FIG. 30).

Test [3] deals with T3, PP2Ac (Homo sapiens, UniProt P67775).
T3 construct: the carboxy-terminal methyl group was chemically removed from cellular PP2Ac; endogenous in cells; host or cells: HAP1 wild type, HAP1 Lcmt-1-KO, HEK293Trex / HEK293T
T3 sequence (P67775 whole entry): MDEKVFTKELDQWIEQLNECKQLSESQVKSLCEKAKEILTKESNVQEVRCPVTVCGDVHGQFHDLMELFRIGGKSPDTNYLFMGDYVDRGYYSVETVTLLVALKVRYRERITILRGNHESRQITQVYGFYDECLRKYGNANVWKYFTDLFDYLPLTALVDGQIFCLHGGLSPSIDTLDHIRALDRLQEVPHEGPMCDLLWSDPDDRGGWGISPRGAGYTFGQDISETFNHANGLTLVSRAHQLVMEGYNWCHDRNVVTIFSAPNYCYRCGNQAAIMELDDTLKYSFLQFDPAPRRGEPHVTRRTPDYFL
Description: Western blot of human cell lysates (HAP1, HEK293; NaOH treatment, Lcmt-1-KO). The test is classed as binding. The settings on record: HAP1, HEK293. Here is the method:
NIH3T3 mouse fibroblasts and human embryonic kidney cells (HEK293Trex) were grown in DMEM+10% FCS+2 mM L-glutamine (Sigma, G2150)+100 units/ml Penicillin/0.1 mg/ml Streptomycin at 37° C. in a 7.5% CO2 atmosphere. HAP1 wild type and HAP1 Lcmt-1-KO cells (Leucine carboxyl methyltransferase 1 deleted by CRISPR/Cas9; Horizon Discovery, #C631 and #HZGHC004373c001) were grown in Iscove's Modified Dulbecco's Medium (IMDM, Thermo Fischer Scientific, Life Technologies #12440053) supplemented with 10% (v/v) Fetal Calf Serum (FCS) (Sigma #F7524, lot 104M3333), GlutaMAX™ (Thermo Fischer Scientific, Life Technologies #35050-38, lot 1895829), and Penicillin-Streptomycin solution (Sigma, #P4333, lot 125M4781V) in a 5% CO2 atmosphere. Of note, HAP1 is a near-haploid human cell line that was derived from the chronic myelogenous leukemia (CML) cell line KBM-7 (Carette (2011), Nature 477(7364):340-3). For cell lysis, exponentially growing cells were washed once with ice-cold PBS, once with ice-cold IP-Wash buffer (20 mmol/l Tris pH 8.0, 135 mmol/l NaCl, 10% glycerol) and lysed on the petri-dish in ice-cold IP-Lyse buffer (18 mmol/l Tris pH 8.0, 122 mmol/l NaCl, 9% glycerol, 1% w/v NP-40) for 20 min at 4° C. rocking. Lysed cells were transferred to Eppendorf 1.5 ml tubes and centrifuged for 15 min at 14,000 rpm at 4° C. in a Beckman & Coulter Microfuge 18 centrifuge. The protein concentration was determined with the Protein Assay Dye Reagent (Biorad, 500-0006) and measurement of absorbance at 595 nm in a Hitachi U-2000 spectrophotometer. […]
To test these antibodies in the western blot analysis with methylated and non-methylated full-length PP2Ac the methyl group was chemically removed from cellular PP2Ac by treating lysates of the human cell line, HAP1, with NaOH, as described in Example 2. […] In agreement with the results of the NaOH experiments, […] of PP2Ac were detected in HAP1 cells that lack the PP2A methyltransferase LCMT-1 indicating the preference of these antibodies for non-methylated PP2Ac (FIG. 22). […]

B1: recombinant monovalent single chain variable fragment (scFv) of antibody 7C10-C5 (scFv)
scFv: DVLMTQTPLSLPVSLGDQASISCRSSQSIVHSNGNTYLEWYLQKPGQSPKLLIYKVSNRFSGVPDRFSGSGSGTDFTLKINRVEAEDLGVYYCFQGSHVPWTFGGGTKLEIKSSGGGGSGGGGGGSSRSSLDVQLQESGPGLVKPSQSLSLTCSVTGYSITSGYYWNWIRQFPGNKLEWMGYISYDGSNNYNPSLKNRISITRDTSKNQFFLKLNSVTTEDTATYYCAGRFAYWGQGTLVTVSAAKTTPPSVTSGQAGQHHHHHHGAYPYDVPDYAS
notes: VL - 19 aa linker - VH - 8 aa of CH1 - 6xHis - HA tag; secreted into HEK293T supernatant, used undiluted; also called 7C10 scFvs; monovalent 7C10-C5 scFv
On to B1, for which, in test [1], the binding result is “no binding (tested: undiluted supernatant)”.

B2: recombinant 7C10-C5: recombinant 7C10-C5 antibody with mIgCK light chain and mIgG2a heavy chain (SEQ ID NO:123, 125) (protein)
light: MDMRVPAQLLGLLLLWLSGARCDVLMTQTPLSLPVSLGDQASISCRSSQSIVHSNGNTYLEWYLQKPGQSPKLLIYKVSNRFSGVPDRFSGSGSGTDFTLKINRVEAEDLGVYYCFQGSHVPWTFGGGTKLEIKADAAPTVSIFPPSSEQLTSGGASVVCFLNNFYPKDINVKWKIDGSERQNGVLNSWTDQDSKDSTYSMSSTLTLTKDEYERHNSYTCEATHKTSTSPIVKSFNRNEC
heavy: MYRMQLLSCIALSLALVTNSDVQLQESGPGLVKPSQSLSLTCSVTGYSITSGYYWNWIRQFPGNKLEWMGYISYDGSNNYNPSLKNRISITRDTSKNQFFLKLNSVTTEDTATYYCAGRFAYWGQGTLVTVSAAKTTAPSVYPLAPVCGDTTGSSVTLGCLVKGYFPEPVTLTWNSGSLSSGVHTFPAVLQSDLYTLSSSVTVTSSTWPSQSITCNVAHPASSTKVDKKIEPRGPTIKPCPPCKCPAPNLLGGPSVFIFPPKIKDVLMISLSPIVTCVVVDVSEDDPDVQISWFVNNVEVHTAQTQTHREDYNSTLRVVSALPIQHQDWMSGKEFKCKVNNKDLPAPIERTISKPKGSVRAPQVYVLPPPEEEMTKKQVTLTCMVTDFMPEDIYVEWTNNGKTELNYKNTEPVLDSDGSYFMYSKLRVEKKNWVERNSYSCSVVHEGLHNHHTTKSFSRTPGK
modifications: Amino acid sequence of the recombinant 7C10-C5 light chain; Amino acid sequence of the recombinant 7C10-C5 heavy chain
For B2, the “recognition of meL309 versus non-carboxymethylated peptides” value in test [2] is reported as “Specific for the α-Carboxymethylated PP2Ac”. In addition, the “detection of PP2Ac in untreated versus NaOH treated cell lysates” value in test [3] is reported as “only detected methylated PP2Ac in the untreated cell lysates but not in the NaOH treated lysates”.

B3: recombinant bivalent single chain variable fragment (scFv) of antibody 7C10-C5 (scFv)
scFv: DVLMTQTPLSLPVSLGDQASISCRSSQSIVHSNGNTYLEWYLQKPGQSPKLLIYKVSNRFSGVPDRFSGSGSGTDFTLKINRVEAEDLGVYYCFQGSHVPWTFGGGTKLEIKSSGGGGSGGGGGGSSRSSLDVQLQESGPGLVKPSQSLSLTCSVTGYSITSGYYWNWIRQFPGNKLEWMGYISYDGSNNYNPSLKNRISITRDTSKNQFFLKLNSVTTEDTATYYCAGRFAYWGQGTLVTVSAAKTTPPSVGSGSGSGSGSGSGSGSGSGSGSGSGSGSGSDVLMTQTPLSLPVSLGDQASISCRSSQSIVHSNGNTYLEWYLQKPGQSPKLLIYKVSNRFSGVPDRFSGSGSGTDFTLKINRVEAEDLGVYYCFQGSHVPWTFGGGTKLEIKSSGGGGSGGGGGGSSRSSLDVQLQESGPGLVKPSQSLSLTCSVTGYSITSGYYWNWIRQFPGNKLEWMGYISYDGSNNYNPSLKNRISITRDTSKNQFFLKLNSVTTEDTATYYCAGRFAYWGQGTLVTVSAAKTTPPSVTSGQAGQHHHHHHGAYPYDVPDYAS
notes: Two VL-linker-VH units joined by a (Gly-Ser)x15 linker, C-terminal 6xHis and HA tag; HEK293T supernatant, undiluted; Signal peptide (residues 1-22, before the first VL) left out by counting; also called 7C10 bi-scFvs; bivalent 7C10-C5 scFv
For the molecule B3, in test [1], the binding result is recorded as “no binding (tested: undiluted supernatant)”.
